Target: T1, mouse Plasma Cell Membrane Glycoprotein-1 (PC-1) (mouse, UniProt P06802 1-906, limits assumed)
T1 construct: Measured as NTPPPH activity, which in these cells also includes the isozyme B10; also called Enpp1; NPP1
T1 sequence (looked up): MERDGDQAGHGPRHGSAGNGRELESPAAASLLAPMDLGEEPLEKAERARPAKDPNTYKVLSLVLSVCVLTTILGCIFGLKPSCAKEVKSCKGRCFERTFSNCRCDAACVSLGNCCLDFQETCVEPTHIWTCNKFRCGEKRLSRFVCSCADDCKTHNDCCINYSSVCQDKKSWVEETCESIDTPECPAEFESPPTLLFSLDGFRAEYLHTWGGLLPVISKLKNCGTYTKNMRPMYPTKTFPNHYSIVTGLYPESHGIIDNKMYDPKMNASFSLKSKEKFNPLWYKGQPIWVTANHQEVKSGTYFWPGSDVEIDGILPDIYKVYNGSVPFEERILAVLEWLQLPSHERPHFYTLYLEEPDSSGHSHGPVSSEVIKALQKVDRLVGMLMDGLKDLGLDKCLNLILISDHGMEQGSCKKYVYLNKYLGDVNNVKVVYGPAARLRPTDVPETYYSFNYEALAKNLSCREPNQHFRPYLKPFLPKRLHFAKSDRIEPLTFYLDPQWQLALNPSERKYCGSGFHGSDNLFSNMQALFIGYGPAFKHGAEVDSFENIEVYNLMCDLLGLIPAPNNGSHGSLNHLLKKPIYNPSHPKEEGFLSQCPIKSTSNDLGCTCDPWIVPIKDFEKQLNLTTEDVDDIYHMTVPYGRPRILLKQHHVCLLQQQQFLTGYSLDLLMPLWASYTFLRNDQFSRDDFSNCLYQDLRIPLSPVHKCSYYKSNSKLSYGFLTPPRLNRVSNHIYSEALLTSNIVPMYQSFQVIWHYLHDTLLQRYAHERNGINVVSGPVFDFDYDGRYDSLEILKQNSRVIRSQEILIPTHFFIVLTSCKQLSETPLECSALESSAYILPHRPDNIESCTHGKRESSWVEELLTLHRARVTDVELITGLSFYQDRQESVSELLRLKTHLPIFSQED
Assay: co-immunoprecipitation from osteoblast cell lysates, enzyme activity on beads
Excerpt: Paradoxically, transfection of wild-type TNAP was associated with a significant increase in cell-associated NTPPPH, and an even greater increase in MV fraction-associated NTPPPH activity in MC3T3 cells, but no significant change in activity of transglutaminase activity, which served as a control enzyme for these experiments. […] Specifically, immunoprecipitation of TNAP from osteoblast cell lysates isolated >85% of the TNAP activity, but was not associated with any co-immunoprecipitation of NTPPPH activity (starting mean cell lysate NTPPPH 1.7 Units, and alkaline phosphatase 4.3 Units; beads after immunoprecipitation with antibody to TNAP had mean of 0.09 Units NTPPPH and 4.1 Units alkaline phosphatase; beads after immunoprecipitation with antibody to PC-1 had mean of 1.3 Units NTPPPH and 0.11 Units alkaline phosphatase, n=5).

B1: mouse tissue-nonspecific alkaline phosphatase (TNAP) (enzyme, UniProt P09242 18-501, looked up)
chain: FVPEKERDPSYWRQQAQETLKNALKLQKLNTNVAKNVIMFLGDGMGVSTVTAARILKGQLHHNTGEETRLEMDKFPFVALSKTYNTNAQVPDSAGTATAYLCGVKANEGTVGVSAATERTRCNTTQGNEVTSILRWAKDAGKSVGIVTTTRVNHATPSAAYAHSADRDWYSDNEMPPEALSQGCKDIAYQLMHNIKDIDVIMGGGRKYMYPKNRTDVEYELDEKARGTRLDGLDLISIWKSFKPRHKHSHYVWNRTELLALDPSRVDYLLGLFEPGDMQYELNRNNLTDPSLSEMVEVALRILTKNLKGFFLLVEGGRIDHGHHEGKAKQALHEAVEMDQAIGKAGAMTSQKDTLTVVTADHSHVFTFGGYTPRGNSIFGLAPMVSDTDKKPFTAILYGNGPGYKVVDGERENVSMVDYAHNNYQAQSAVPLRHETHGGEDVAVFAKGPMAHLLHGVHEQNYIPHVMAYASCIGANLDHCAWAG
notes: The lysates are called only 'osteoblast cell lysates'; Some MC3T3 cells were transfected with human TNAP, so the species in this experiment is not certain; also called Akp2
binding result: no binding
